Test results as given in patent US20200131274A1 (CRESCENDO BIOLOGICS, published 2020).
Read-outs that look alike come from different tables or passages of the source.

What was measured:
[1] = molecular target: T1, human prostate specific membrane antigen (PSMA), full-length, on cells (human, UniProt Q04609 1-750); assay: cell-based or functional assay
[2] = molecular target: T2, recombinant human PSMA (R&D, cat. no. 4234-ZN) (human, UniProt Q04609 44-750); assay: Octet RED384 BLI, PSMA on sensor, VH series from 0.375 ug/ml
T2 construct: Bought protein; also called rhPSMA; Recombinant PMSA
T2 sequence (Q04609 44-750 limits assumed): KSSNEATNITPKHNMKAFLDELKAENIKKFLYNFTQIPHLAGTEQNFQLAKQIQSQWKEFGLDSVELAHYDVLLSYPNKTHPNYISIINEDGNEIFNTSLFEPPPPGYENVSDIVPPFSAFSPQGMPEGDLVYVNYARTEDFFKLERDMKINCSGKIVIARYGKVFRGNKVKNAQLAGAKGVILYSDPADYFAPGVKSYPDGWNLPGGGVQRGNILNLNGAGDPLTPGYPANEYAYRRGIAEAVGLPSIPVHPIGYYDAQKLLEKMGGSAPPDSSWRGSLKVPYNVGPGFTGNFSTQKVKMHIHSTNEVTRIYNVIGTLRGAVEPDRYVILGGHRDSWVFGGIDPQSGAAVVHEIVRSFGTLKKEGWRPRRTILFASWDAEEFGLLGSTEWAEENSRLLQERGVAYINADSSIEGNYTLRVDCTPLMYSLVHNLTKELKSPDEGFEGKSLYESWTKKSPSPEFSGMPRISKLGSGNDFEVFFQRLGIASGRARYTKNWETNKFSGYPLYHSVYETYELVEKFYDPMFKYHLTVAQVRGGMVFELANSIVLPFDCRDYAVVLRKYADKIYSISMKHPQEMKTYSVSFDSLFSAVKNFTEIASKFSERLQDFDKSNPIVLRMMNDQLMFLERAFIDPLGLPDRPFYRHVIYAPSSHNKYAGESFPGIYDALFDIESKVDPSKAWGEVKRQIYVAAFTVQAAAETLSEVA

[3] = molecular target: T1, human prostate specific membrane …; assay: cell-based or functional assay; remark: listed apart in the source
[4] = molecular target: T3, cynomolgus PSMA, full-length, on CHO cells (cynomolgus, UniProt A0A2K5VNZ0 1-750); assay: cell-based or functional assay
[5] = molecular target: T1, human prostate specific membrane …; assay: cell-based or functional assay; remark: listed apart in the source
[6] = molecular target: T1, human prostate specific membrane …; assay: cell-based or functional assay; remark: listed apart in the source
[7] = molecular target: T1, human prostate specific membrane …; assay: FMAT direct cell binding, DU145 PSMA cells
[8] = molecular target: T1, human prostate specific membrane …; assay: FMAT direct cell binding, LNCap cells
[9] = molecular target: T3, cynomolgus PSMA, full-length, on CHO …; assay: FMAT direct cell binding, CHO cyno PSMA cells
[10] = molecular target: T1, human prostate specific membrane …; assay: FMAT direct cell binding, CHO human PSMA cells
[11] = molecular target: T2, recombinant human PSMA (R&D, cat. no. …); assay: Octet RED384 BLI, PSMA on sensor, VH series from 0.375 ug/ml; remark: listed apart in the source
[12] = molecular target: T1, human prostate specific membrane …; assay: cell-based or functional assay; remark: listed apart in the source
[13] = molecular target: T1, human prostate specific membrane …; assay: FMAT direct cell binding, human PSMA-CHO cells

T1 sequence (Q04609 whole entry): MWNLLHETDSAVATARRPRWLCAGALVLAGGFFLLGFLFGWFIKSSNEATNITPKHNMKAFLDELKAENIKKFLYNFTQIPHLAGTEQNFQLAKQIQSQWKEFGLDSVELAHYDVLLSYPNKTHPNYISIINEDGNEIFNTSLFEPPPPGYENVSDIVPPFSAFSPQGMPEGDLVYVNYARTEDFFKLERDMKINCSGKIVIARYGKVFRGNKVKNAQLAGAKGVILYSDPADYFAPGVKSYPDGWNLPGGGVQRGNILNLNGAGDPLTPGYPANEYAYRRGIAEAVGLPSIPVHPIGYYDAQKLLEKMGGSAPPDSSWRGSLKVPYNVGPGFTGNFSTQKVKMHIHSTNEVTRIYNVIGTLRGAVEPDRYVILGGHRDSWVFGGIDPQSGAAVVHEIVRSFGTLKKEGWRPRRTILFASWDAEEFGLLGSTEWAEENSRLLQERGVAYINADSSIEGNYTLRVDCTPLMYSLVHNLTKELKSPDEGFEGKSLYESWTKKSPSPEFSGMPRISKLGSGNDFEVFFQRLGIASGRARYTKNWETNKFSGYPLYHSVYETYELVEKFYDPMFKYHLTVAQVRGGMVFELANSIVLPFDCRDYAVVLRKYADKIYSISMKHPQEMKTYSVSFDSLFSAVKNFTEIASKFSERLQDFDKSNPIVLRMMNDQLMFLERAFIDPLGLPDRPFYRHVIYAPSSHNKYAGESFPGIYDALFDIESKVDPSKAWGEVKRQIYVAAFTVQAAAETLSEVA

| Binder | His-ZAP cell killing, human PSMA Average EC50 [3] | EC50 [7] | EC50 [8] | EC50 [9] | EC50 [10] | EC50 [13] | His-ZAP cell killing, cyno PSMA Average EC50 [4] | other results |
| --- | --- | --- | --- | --- | --- | --- | --- | --- |
| single VH domain antibody 2.12 (VHH, Human single VH domain antibody (Humabody); C-terminal His tag, residues not tied) VHH: EVQLVESGGGVVQPGRSLRLSCAASGFSFSGYGMHWVRQAPGKGLEWVAYISYDKSNKYYADKVKGRFTISRDNSKNTLYLQMNSLRAEDTAVYYCAKDPAWGLRLGESSSYDFDIWGQGTMVTVSS | 0.016 nM |  |  |  |  |  |  | pHrodo Green internalization assay, human PSMA Average EC50 (M) [1]: 5.3e-10 M; Kd [2]: 1.56 nM; koff [2]: 0.00157 s⁻¹; His-ZAP cell killing, cyno PSMA EC50 [4]: 0.091 nM |
| HiPEG A-His6 val-cit-PAB-MMAE (VHH, HiPEG val-cit-PAB-MMAE attached via the C-terminal His6-tag, DAR 1) VHH: EVQLVESGGGVVQPGRSLRLSCAASGFSFSGYGMHWVRQAPGKGLEWVAYISYDGSNKYYADSVKGRFTISRDNSKNTLYLQMNSLRAEDTAVYYCAKDPAWGLRLGESSSYDFDIWGQGTMVTVSS |  |  |  |  |  |  |  | IC50 Toxin (nM), DU145 PSMA cells, 48 h [5]: 1.16 nM; Mean IC50, cytotoxicity on DU145 PSMA cells, 48 h [5]: 1.2 nM; Mean Max % Cell kill, DU145 PSMA cells, 48 h [5]: 74%; IC50 (nM), cytotoxicity on DU145 PSMA cells, 72 h [6]: 0.55 nM; IC50 (toxin) nM, DU145 PSMA cells, 72 h [6]: 0.55 nM |
| single VH domain antibody 2.14 (VHH, Human single VH domain antibody (Humabody); C-terminal His tag, residues not tied) VHH: EVQLVESGGGVVQPGRSLRLSCAASGFSFSGYGVHWVRQAPGKGLEWVAYISYDASNKYYADNVKGRFTISRDNSKNTLYLQMNSLRAEDTAVYYCAKDPAWGLRLGESSSYDFDIWGQGTMVTVSS |  | 0.202 nM | 0.0332 nM | 0.427 nM | 0.11 nM |  |  |  |
| single VH domain antibody 2.13 (VHH, Human single VH domain antibody (Humabody); C-terminal His tag, residues not tied) VHH: EVQLVESGGGVVQPGRSLRLSCAASGFSFSGYGLHWVRQAPGKGLEWVAYISYDASNKYYADNVKGRFTISRDNSKNTLYLQMNSLRAEDTAVYYCAKDPAWGLRLGESSSYDFDIWGQGTMVTVSS | 0.027 nM |  |  |  |  |  |  | pHrodo Green internalization assay, human PSMA Average EC50 (M) [1]: 5.8e-10 M; Kd [2]: 0.99 nM; koff [2]: 0.000743 s⁻¹; His-ZAP cell killing, cyno PSMA EC50 [4]: 0.08 nM |
| single VH domain antibody 2.18 (VHH, Human single VH domain antibody (Humabody); C-terminal His tag, residues not tied) VHH: EVQLVESGGGVVQPGRSLRLSCAASGFSFSGYGQHWVRQAPGKGLEWVAYISYDASNKYYADNVKGRFTISRDNSKNTLYLQMNSLRAEDTAVYYCAKDPAWGLRLGESSSYDFDIWGQGTMVTVSS |  | 0.25 nM | 0.0354 nM | 0.337 nM | 0.104 nM |  |  |  |
| single VH domain antibody 1.10 (VHH, Human single VH domain antibody (Humabody)) VHH: EVQLLESGGGLVQPGGSLRLSCAASGFSFSSYALSWVRQAPGKGLEWVSSIGENNATTDYADFVKGRFTISRDNSKNTLYLQMNSLRVEDTAVYYCVKDGVHWGQGTLVTVSS | 0.021 nM | 0.067 nM | 0.133 nM | 0.152 nM | 0.0718 nM |  |  | pHrodo Green internalization assay, human PSMA Average EC50 (M) [1]: 6.4e-10 M; Kd [11]: 0.67 nM; koff [11]: 0.000418 s⁻¹; His-ZAP cell killing, cyno PSMA EC50 [4]: 1.3 nM |
| HiPEG B-His6 val-cit-PAB-MMAE (VHH, HiPEG val-cit-PAB-MMAE attached via the C-terminal His6-tag, DAR 0.9) VHH: EVQLLESGGGLVQPGGSLRLSCAASGFSFSSYAMSWVRQAPGKGLEWVSSIGENDGTTDYADSVKGRFTISRDNSKSMLYLQMNSLRVEDTAVYYCVKDGVHWGQGTLVTVSS |  |  |  |  |  |  |  | IC50 Toxin (nM), DU145 PSMA cells, 48 h [5]: 2.43 nM; Mean IC50, cytotoxicity on DU145 PSMA cells, 48 h [5]: 2.7 nM; Mean Max % Cell kill, DU145 PSMA cells, 48 h [5]: 73%; IC50 (nM), cytotoxicity on DU145 PSMA cells, 72 h [6]: 4.1 nM; IC50 (toxin) nM, DU145 PSMA cells, 72 h [6]: 3.69 nM |
| single VH domain antibody 1.13 (VHH, Human single VH domain antibody (Humabody)) VHH: EVQLLESGGGLVQPGGSLRLSCAASGFSFSSYALSWVRQAPGKGLEWVSSIGENNHTTDYAADVKGRFTISRDNSKNTLYLQMNSLRVEDTAVYYCVKDGVHWGQGTLVTVSS |  | 0.0456 nM | 0.0386 nM | 0.115 nM | 0.0513 nM |  |  |  |
| single VH domain antibody 1.14 (VHH, Human single VH domain antibody (Humabody)) VHH: EVQLLESGGGLVQPGGSLRLSCAASGFSFSSYALSWVRQAPGKGLEWVSSIGENNATTDYADVVKGRFTISRDNSKNTLYLQMNSLRVEDTAVYYCVKDGVHWGQGTLVTVSS | 0.017 nM | 0.052 nM | 0.0833 nM | 0.145 nM | 0.0588 nM |  |  | pHrodo Green internalization assay, human PSMA Average EC50 (M) [1]: 4.4e-10 M; Kd [11]: 0.46 nM; koff [11]: 0.000335 s⁻¹; His-ZAP cell killing, cyno PSMA EC50 [4]: 0.79 nM |
| HiPEG B-2-A-His6 val-cit-PAB-MMAE (bispecific antibody, HiPEG val-cit-PAB-MMAE attached via the C-terminal His6-tag, DAR 1) EVQLLESGGGLVQPGGSLRLSCAASGFSFSSYAMSWVRQAPGKGLEWVSSIGENDGTTDYADSVKGRFTISRDNSKSMLYLQMNSLRVEDTAVYYCVKDGVHWGQGTLVTVSSGGGGSGGGGSGGGGSGGGGSGGGGSGGGGSEVQLVESGGGVVQPGRSLRLSCAASGFSFSGYGMHWVRQAPGKGLEWVAYISYDGSNKYYADSVKGRFTISRDNSKNTLYLQMNSLRAEDTAVYYCAKDPAWGLRLGESSSYDFDIWGQGTMVTVSS |  |  |  |  |  |  |  | IC50 Toxin (nM), DU145 PSMA cells, 48 h [5]: 0.15 nM; Mean IC50, cytotoxicity on DU145 PSMA cells, 48 h [5]: 0.15 nM; Mean Max % Cell kill, DU145 PSMA cells, 48 h [5]: 79%; IC50 (nM), PSMA-DU145 cytotoxicity assay (72 h) [12]: 0.27 nM; IC50 (toxin) (nM), PSMA-DU145 cytotoxicity assay (72 h) [12]: 0.27 nM |
| 1.18-6GS-2.17 (bispecific antibody, linker (G4S)6) EVQLLESGGGLVQPGGSLRLSCAASGFSFSSYALSWVRQAPGKGLEWVSSIGENNATTDYAASVKGRFTISRDNSKNTLYLQMNSLRVEDTAVYYCVKDGVHWGQGTLVTVSSGGGGSGGGGSGGGGSGGGGSGGGGSGGGGSEVQLVESGGGVVQPGRSLRLSCAASGFSFSGYGMHWVRQAPGKGLEWVAYISYDASNKYYADNVKGRFTISRDNSKNTLYLQMNSLRAEDTAVYYCAKDPAWGLRLGESSSYDFDIWGQGTMVTVSS | 0.012 nM |  |  |  |  | 0.278 nM | 0.0056 nM |  |
| 1.11-6GS-2.22 (bispecific antibody, linker (G4S)6; also called 1.11-2.22; 1.11-6GS-2.22His) EVQLLESGGGLVQPGGSLRLSCAASGFSFSSYALSWVRQAPGKGLEWVSSIGENNDTTDYADNVKGRFTISRDNSKNTLYLQMNSLRVEDTAVYYCVKDGVHWGQGTLVTVSSGGGGSGGGGSGGGGSGGGGSGGGGSGGGGSEVQLVESGGGVVQPGRSLRLSCAASGFSFSGYGTHWVRQAPGKGLEWVAYISYDGSNKYYAAPVKGRFTISRDNSKNTLYLQMNSLRAEDTAVYYCAKDAAWGLRLGESSSYDFDIWGQGTMVTVSS | 0.01 nM |  |  |  |  | 0.219 nM | 0.0095 nM |  |
| 1.16-6GS-2.22 (bispecific antibody, linker (G4S)6) EVQLLESGGGLVQPGGSLRLSCAASGFSFSSYALSWVRQAPGKGLEWVSSIGENNHTTDYADTVKGRFTISRDNSKNTLYLQMNSLRVEDTAVYYCVKDGVHWGQGTLVTVSSGGGGSGGGGSGGGGSGGGGSGGGGSGGGGSEVQLVESGGGVVQPGRSLRLSCAASGFSFSGYGTHWVRQAPGKGLEWVAYISYDGSNKYYAAPVKGRFTISRDNSKNTLYLQMNSLRAEDTAVYYCAKDAAWGLRLGESSSYDFDIWGQGTMVTVSS | 0.02 nM |  |  |  |  | 0.225 nM | 0.011 nM |  |
| 1.18-6GS-2.1 (bispecific antibody, linker (G4S)6) EVQLLESGGGLVQPGGSLRLSCAASGFSFSSYALSWVRQAPGKGLEWVSSIGENNATTDYAASVKGRFTISRDNSKNTLYLQMNSLRVEDTAVYYCVKDGVHWGQGTLVTVSSGGGGSGGGGSGGGGSGGGGSGGGGSGGGGSEVQLVESGGGVVQPGRSLRLSCAASGFSFSGYGMHWVRQAPGKGLEWVAYISYDGSNKYYADSVKGRFTISRDNSKNTLYLQMNSLRAEDTAVYYCAKDPAWGLRLGESSSYDFDIWGQGTMVTVSS | 0.0057 nM |  |  |  |  | 0.294 nM | 0.0058 nM |  |
| 1.18-6GS-2.22 (bispecific antibody, linker (G4S)6) EVQLLESGGGLVQPGGSLRLSCAASGFSFSSYALSWVRQAPGKGLEWVSSIGENNATTDYAASVKGRFTISRDNSKNTLYLQMNSLRVEDTAVYYCVKDGVHWGQGTLVTVSSGGGGSGGGGSGGGGSGGGGSGGGGSGGGGSEVQLVESGGGVVQPGRSLRLSCAASGFSFSGYGTHWVRQAPGKGLEWVAYISYDGSNKYYAAPVKGRFTISRDNSKNTLYLQMNSLRAEDTAVYYCAKDAAWGLRLGESSSYDFDIWGQGTMVTVSS | 0.015 nM |  |  |  |  | 0.196 nM | 0.014 nM |  |
| HiPEG B-1-A-His6 val-cit-PAB-MMAE (bispecific antibody, HiPEG val-cit-PAB-MMAE attached via the C-terminal His6-tag, DAR 1) EVQLLESGGGLVQPGGSLRLSCAASGFSFSSYAMSWVRQAPGKGLEWVSSIGENDGTTDYADSVKGRFTISRDNSKSMLYLQMNSLRVEDTAVYYCVKDGVHWGQGTLVTVSSGGGGSGGGGSEVQLVESGGGVVQPGRSLRLSCAASGFSFSGYGMHWVRQAPGKGLEWVAYISYDGSNKYYADSVKGRFTISRDNSKNTLYLQMNSLRAEDTAVYYCAKDPAWGLRLGESSSYDFDIWGQGTMVTVSS |  |  |  |  |  |  |  | IC50 Toxin (nM), DU145 PSMA cells, 48 h [5]: 0.13 nM; Mean IC50, cytotoxicity on DU145 PSMA cells, 48 h [5]: 0.13 nM; Mean Max % Cell kill, DU145 PSMA cells, 48 h [5]: 79%; IC50 (nM), cytotoxicity on DU145 PSMA cells, 72 h [6]: 0.1 nM; IC50 (toxin) nM, DU145 PSMA cells, 72 h [6]: 0.1 nM |
